Experimental data taken from patent publication US20260209386A1 (MYTHIC THERAPEUTICS, published 2026).

T1: Human PTK7/CCK4 Protein, His Tag, Acro Biosystems PT7-H52H3 (human, UniProt Q13308 31-704)
T1 construct: bought protein; also called Human PTK7 Protein, His Tag, Acro Biosystems; not shown: His tag
T1 sequence: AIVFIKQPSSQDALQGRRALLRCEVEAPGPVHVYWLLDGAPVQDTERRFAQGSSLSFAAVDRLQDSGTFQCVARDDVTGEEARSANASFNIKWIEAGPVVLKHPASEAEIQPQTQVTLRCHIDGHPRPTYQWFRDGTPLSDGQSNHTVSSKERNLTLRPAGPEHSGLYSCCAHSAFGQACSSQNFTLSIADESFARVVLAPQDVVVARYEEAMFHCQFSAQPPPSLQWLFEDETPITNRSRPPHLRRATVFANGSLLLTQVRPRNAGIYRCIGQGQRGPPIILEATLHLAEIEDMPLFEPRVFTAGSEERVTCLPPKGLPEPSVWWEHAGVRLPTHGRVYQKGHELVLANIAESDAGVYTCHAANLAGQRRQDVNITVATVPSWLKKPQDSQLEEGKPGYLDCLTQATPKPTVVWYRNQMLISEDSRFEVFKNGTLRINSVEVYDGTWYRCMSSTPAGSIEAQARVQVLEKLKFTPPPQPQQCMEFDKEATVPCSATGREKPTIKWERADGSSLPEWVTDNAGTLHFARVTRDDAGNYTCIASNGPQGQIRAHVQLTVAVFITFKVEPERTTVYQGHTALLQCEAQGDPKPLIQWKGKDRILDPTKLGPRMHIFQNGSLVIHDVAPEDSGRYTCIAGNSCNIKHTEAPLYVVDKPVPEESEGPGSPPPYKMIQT


Molecular target: T1, Human PTK7/CCK4 Protein, His Tag, Acro …
Assay: BLI, antibody on anti-human Fc sensor, 50 nM PTK7

| binding result | Binder |
| --- | --- |
| binds | MYT11245 (antibody, V domains shown, IgG) VH: EVQLVESGGGLVQPGGSLRLSCTASGIDLSSYVMGWVRQAPGKGLEWVGYIYGGGGTYYATWARGRFTISRDTSKNTVYLQMNSLRAEDTAVYFCARAAADFYFNLWGQGTLVTVSS VL: EIVMTQSPSTLSASVGDRVIITCQASQSISSYLAWYQQKPGKAPKLLIYDISDLASGVPSRFSGSGSGAEFTLTISSLQPDDFATYYCQSYYWISHSGAAFGQGTKLTVL |
| binds | MYT11248 (antibody, V domains shown, IgG) VH: EVQLVESGGGLVQPGGSLRLSCTASGIDLSSYVMGWVRQAPGKGLEWVGYIYGGGGTYYATWARGRFTISRDTSKNTVYLQMNSLRAEDTAVYFCARAAADFYFNLWGQGTLVTVSS VL: EIVMTQSPSTLSASVGDRVIITCQASQSISSYLAWYQQKPGKAPKLLIYDISDLASGVPSRFSGSGSGAEFTLTISSLQPDDFATYYCQSYYWISNSGHAFGQGTKLTVL |
| binds | MYT11247 (antibody, V domains shown, IgG) VH: EVQLVESGGGLVQPGGSLRLSCTASGIDLSSYVMGWVRQAPGKGLEWVGYIYGGGGTYYATWARGRFTISRDTSKNTVYLQMNSLRAEDTAVYFCARAAADFYFNLWGQGTLVTVSS VL: EIVMTQSPSTLSASVGDRVIITCQASQSISSYLAWYQQKPGKAPKLLIYDISDLASGVPSRFSGSGSGAEFTLTISSLQPDDFATYYCQSYYWISNSHAAFGQGTKLTVL |
| binds | MYT11249 (antibody, V domains shown, IgG) VH: EVQLVESGGGLVQPGGSLRLSCTASGIDLSSYVMGWVRQAPGKGLEWVGYIYGGGGTYYATWARGRFTISRDTSKNTVYLQMNSLRAEDTAVYFCARAAADFYFNLWGQGTLVTVSS VL: EIVMTQSPSTLSASVGDRVIITCQASQSISSYLAWYQQKPGKAPKLLIYDISDLASGVPSRFSGSGSGAEFTLTISSLQPDDFATYYCQSYYWISNSGAHFGQGTKLTVL |
| binds | MYT11246 (antibody, V domains shown, IgG) VH: EVQLVESGGGLVQPGGSLRLSCTASGIDLSSYVMGWVRQAPGKGLEWVGYIYGGGGTYYATWARGRFTISRDTSKNTVYLQMNSLRAEDTAVYFCARAAADFYFNLWGQGTLVTVSS VL: EIVMTQSPSTLSASVGDRVIITCQASQSISSYLAWYQQKPGKAPKLLIYDISDLASGVPSRFSGSGSGAEFTLTISSLQPDDFATYYCQSYYWISNHGAAFGQGTKLTVL |

The remaining lines, values behind:

| Binder | binding result |
| --- | --- |
| MYT11349 (antibody, V domains shown, IgG) VH: EVQLVESGGGLVQPGGSLRLSCTASGIDLSNYAVIWVRQAPGKGLEWVGHIYTYDTTYYANWAKGRFTISRDTSKNTVYLQMNSLRAEDTAVYFCARSFSDISDLIKLWGQGTLVTVSS VL: EIVMTQSPSTLSASVGDRVIITCQASQSLYNNKDLAWYQQKPGKAPKLLIYEASKLASGVPSRFSGSGSGAEFTLTISSLQPDDFATYYCLGEFSCGSGDCLAFGQGTKLTVL | binds |
| MYT11258 (antibody, V domains shown, IgG) VH: EVQLVESGGGLVQPGGSLRLSCTASGIDLHRYSMGWVRQAPGKGLEWVGIISYGGSTYYASWAKGRFTISRDTSKNTVYLQMNSLRAEDTAVYFCARVGYPGYSGYGYAFDAFDPWGQGTLVTVSS VL: EIVMTQSPSTLSASVGDRVIITCQSSKSVYNDNWLSWYQQKPGKAPKLLIYGASTLASGVPSRFSGSGSGAEFTLTISSLQPDDFATYYCAGGYSSSSDNGFGQGTKLTVL | binds |
| MYT11272 (antibody, V domains shown, IgG) VH: EVQLVESGGGLVQPGGSLRLSCTASGIDLSRYSMGWVRQAPGKGLEWVGIISYGGSTHYASWAKGRFTISRDTSKNTVYLQMNSLRAEDTAVYFCARVGYPGYSGYGYAFDAFDPWGQGTLVTVSS VL: EIVMTQSPSTLSASVGDRVIITCQSSKSVYNDNWLSWYQQKPGKAPKLLIYGASTLASGVPSRFSGSGSGAEFTLTISSLQPDDFATYYCAGGYSSSSDNGFGQGTKLTVL | binds |
| MYT11285 (antibody, V domains shown, IgG) VH: EVQLVESGGGLVQPGGSLRLSCTASGIDLSRYSMGWVRQAPGKGLEWVGIISYGGSTYYASWAKGRFTISRDTSKNTVYLQMNSLRAEDTAVYFCARVGYHGYSGYGYAFDAFDPWGQGTLVTVSS VL: EIVMTQSPSTLSASVGDRVIITCQSSKSVYNDNWLSWYQQKPGKAPKLLIYGASTLASGVPSRFSGSGSGAEFTLTISSLQPDDFATYYCAGGYSSSSDNGFGQGTKLTVL | binds |
| MYT11267 (antibody, V domains shown, IgG) VH: EVQLVESGGGLVQPGGSLRLSCTASGIDLSRYSMGWVRQAPGKGLEWVGIISHGGSTYYASWAKGRFTISRDTSKNTVYLQMNSLRAEDTAVYFCARVGYPGYSGYGYAFDAFDPWGQGTLVTVSS VL: EIVMTQSPSTLSASVGDRVIITCQSSKSVYNDNWLSWYQQKPGKAPKLLIYGASTLASGVPSRFSGSGSGAEFTLTISSLQPDDFATYYCAGGYSSSSDNGFGQGTKLTVL | binds |
| MYT11309 (antibody, V domains shown, IgG) VH: EVQLVESGGGLVQPGGSLRLSCTASGIDLSRYSMGWVRQAPGKGLEWVGIISYGGSTYYASWAKGRFTISRDTSKNTVYLQMNSLRAEDTAVYFCARVGYPGYSGYGYAFDAFDPWGQGTLVTVSS VL: EIVMTQSPSTLSASVGDRVIITCQSSKSHYNDNWLSWYQQKPGKAPKLLIYGASTLASGVPSRFSGSGSGAEFTLTISSLQPDDFATYYCAGGYSSSSDNGFGQGTKLTVL | binds |
| MYT11322 (antibody, V domains shown, IgG) VH: EVQLVESGGGLVQPGGSLRLSCTASGIDLSRYSMGWVRQAPGKGLEWVGIISYGGSTYYASWAKGRFTISRDTSKNTVYLQMNSLRAEDTAVYFCARVGYPGYSGYGYAFDAFDPWGQGTLVTVSS VL: EIVMTQSPSTLSASVGDRVIITCQSSKSVYNDNWLSWYQQKPGKAPKLLIYGASTLHSGVPSRFSGSGSGAEFTLTISSLQPDDFATYYCAGGYSSSSDNGFGQGTKLTVL | binds |
| MYT11263 (antibody, V domains shown, IgG) VH: EVQLVESGGGLVQPGGSLRLSCTASGIDLSRYSMHWVRQAPGKGLEWVGIISYGGSTYYASWAKGRFTISRDTSKNTVYLQMNSLRAEDTAVYFCARVGYPGYSGYGYAFDAFDPWGQGTLVTVSS VL: EIVMTQSPSTLSASVGDRVIITCQSSKSVYNDNWLSWYQQKPGKAPKLLIYGASTLASGVPSRFSGSGSGAEFTLTISSLQPDDFATYYCAGGYSSSSDNGFGQGTKLTVL | binds |
| MYT11289 (antibody, V domains shown, IgG) VH: EVQLVESGGGLVQPGGSLRLSCTASGIDLSRYSMGWVRQAPGKGLEWVGIISYGGSTYYASWAKGRFTISRDTSKNTVYLQMNSLRAEDTAVYFCARVGYPGYSHYGYAFDAFDPWGQGTLVTVSS VL: EIVMTQSPSTLSASVGDRVIITCQSSKSVYNDNWLSWYQQKPGKAPKLLIYGASTLASGVPSRFSGSGSGAEFTLTISSLQPDDFATYYCAGGYSSSSDNGFGQGTKLTVL | binds |
| MYT11279 (antibody, V domains shown, IgG) VH: EVQLVESGGGLVQPGGSLRLSCTASGIDLSRYSMGWVRQAPGKGLEWVGIISYGGSTYYASWAKHRFTISRDTSKNTVYLQMNSLRAEDTAVYFCARVGYPGYSGYGYAFDAFDPWGQGTLVTVSS VL: EIVMTQSPSTLSASVGDRVIITCQSSKSVYNDNWLSWYQQKPGKAPKLLIYGASTLASGVPSRFSGSGSGAEFTLTISSLQPDDFATYYCAGGYSSSSDNGFGQGTKLTVL | binds |
